Reference: the supplement of paper PMC9876800

Test system: peptide library, one residue held at a place counted from the S/T acceptor
Experiment: relative phosphorylation of the sub-library (ratio to the mean residue at this position); higher = residue favoured
Details: human
Outline: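 Purified recombinant kinases were reacted in 384-well plates with biotinylated degenerate peptide sub-libraries, each having one residue fixed at one position around a central Ser/Thr. The reaction mix contained 50 μM peptide plus 50 μM ATP spiked with γ-32P-ATP and ran for 90 min under kinase-specific conditions. Relative sub-library phosphorylation, taken from densitometry of phosphorimaged streptavidin membrane spots, is a ratio to the mean residue at that position.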

Chain of RIPK3, construct: aa1-313 (Q9Y572 1-313, looked up): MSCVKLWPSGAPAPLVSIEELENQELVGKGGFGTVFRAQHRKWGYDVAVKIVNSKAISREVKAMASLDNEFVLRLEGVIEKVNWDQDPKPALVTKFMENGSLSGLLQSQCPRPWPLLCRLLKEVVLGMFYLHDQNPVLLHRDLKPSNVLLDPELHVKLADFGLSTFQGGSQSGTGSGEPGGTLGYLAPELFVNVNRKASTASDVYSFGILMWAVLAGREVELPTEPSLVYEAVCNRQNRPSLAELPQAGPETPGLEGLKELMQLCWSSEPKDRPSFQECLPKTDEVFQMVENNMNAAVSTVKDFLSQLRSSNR
Chain of ROCK2, construct: aa5-554 (O75116 5-554, looked up): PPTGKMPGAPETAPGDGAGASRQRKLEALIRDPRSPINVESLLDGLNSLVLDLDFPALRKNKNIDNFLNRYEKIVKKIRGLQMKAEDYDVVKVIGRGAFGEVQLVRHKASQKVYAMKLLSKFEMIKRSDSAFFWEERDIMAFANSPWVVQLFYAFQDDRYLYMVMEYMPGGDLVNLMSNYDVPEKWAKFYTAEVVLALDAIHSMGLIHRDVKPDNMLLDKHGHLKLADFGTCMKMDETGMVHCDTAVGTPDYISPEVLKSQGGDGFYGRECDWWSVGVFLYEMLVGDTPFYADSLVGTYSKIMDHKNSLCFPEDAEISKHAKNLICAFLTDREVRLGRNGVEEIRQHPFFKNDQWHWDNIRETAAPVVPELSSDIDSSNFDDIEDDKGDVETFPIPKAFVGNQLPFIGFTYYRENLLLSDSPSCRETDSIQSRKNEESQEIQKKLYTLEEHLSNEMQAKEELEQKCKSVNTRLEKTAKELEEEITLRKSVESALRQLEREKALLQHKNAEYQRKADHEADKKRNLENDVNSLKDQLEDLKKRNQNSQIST
Chain of SIK2, construct: Full length (Q9H0K1 whole entry, looked up): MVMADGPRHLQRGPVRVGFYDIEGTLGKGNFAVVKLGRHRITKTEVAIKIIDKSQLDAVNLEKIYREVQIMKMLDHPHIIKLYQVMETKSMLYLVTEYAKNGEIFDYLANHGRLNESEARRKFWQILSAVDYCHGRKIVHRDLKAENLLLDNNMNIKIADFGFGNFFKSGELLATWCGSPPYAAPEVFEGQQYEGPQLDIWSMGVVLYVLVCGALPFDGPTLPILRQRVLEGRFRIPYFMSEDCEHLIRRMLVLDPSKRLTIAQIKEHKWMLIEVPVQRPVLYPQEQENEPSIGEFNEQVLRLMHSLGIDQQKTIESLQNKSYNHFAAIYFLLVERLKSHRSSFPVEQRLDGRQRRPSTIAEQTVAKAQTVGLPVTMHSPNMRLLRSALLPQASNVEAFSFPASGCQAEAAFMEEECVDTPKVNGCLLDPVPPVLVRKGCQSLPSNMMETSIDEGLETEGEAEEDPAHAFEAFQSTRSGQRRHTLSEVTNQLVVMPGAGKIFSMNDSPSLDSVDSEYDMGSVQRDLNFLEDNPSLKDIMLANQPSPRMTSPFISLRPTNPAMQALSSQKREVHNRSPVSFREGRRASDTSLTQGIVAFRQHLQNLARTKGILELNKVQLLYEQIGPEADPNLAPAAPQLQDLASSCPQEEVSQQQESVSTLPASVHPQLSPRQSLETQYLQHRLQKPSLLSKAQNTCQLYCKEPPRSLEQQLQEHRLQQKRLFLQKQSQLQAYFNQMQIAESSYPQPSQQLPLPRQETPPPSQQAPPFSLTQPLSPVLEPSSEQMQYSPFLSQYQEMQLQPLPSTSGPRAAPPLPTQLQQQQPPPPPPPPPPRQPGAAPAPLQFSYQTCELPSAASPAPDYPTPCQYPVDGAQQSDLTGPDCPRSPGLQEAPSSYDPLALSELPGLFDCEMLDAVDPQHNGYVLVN

RIPK3, construct: aa1-313 (from UniProt Q9Y572)
relative phosphorylation
Details | at +1 | at +2 | at +3 | at +4 | at -1 | at -2 | at -3 | at -4 | at -5
A fixed | 0.854 | 0.673 | 0.422 | 1.03 | 0.762 | 0.87 | 1.02 | 1.03 | 1.16
D fixed | 0.247 | 0.425 | 0.266 | 0.816 | 0.678 | 0.699 | 0.711 | 0.73 | 0.818
E fixed | 0.459 | 0.727 | 0.224 | 0.625 | 0.421 | 0.515 | 0.692 | 0.766 | 0.668
F fixed | 2.07 | 0.902 | 3 | 1.07 | 0.662 | 0.66 | 0.785 | 1.1 | 1.04
G fixed | 0.895 | 0.746 | 0.646 | 1.21 | 0.466 | 1.03 | 1.65 | 1.17 | 1.13
H fixed | 0.695 | 1.3 | 0.615 | 0.944 | 1.28 | 1.29 | 1.19 | 1.05 | 1.22
I fixed | 1.6 | 1.43 | 1.67 | 0.998 | 1.08 | 0.747 | 0.832 | 0.949 | 1.04
K fixed | 1.02 | 1.36 | 0.424 | 1.24 | 2.04 | 0.953 | 1.37 | 1.36 | 1.43
L fixed | 0.935 | 1.61 | 2.54 | 0.991 | 1.27 | 1.2 | 0.922 | 0.873 | 0.912
M fixed | 1.62 | 1.05 | 1.58 | 0.989 | 1.1 | 0.922 | 0.977 | 1.13 | 0.958
N fixed | 0.493 | 0.977 | 0.474 | 0.915 | 1.21 | 1.15 | 0.946 | 1.03 | 0.848
P fixed | 0.148 | 0.548 | 0.253 | 1.22 | 0.783 | 1.73 | 0.992 | 0.862 | 0.894
Q fixed | 1.32 | 1.04 | 0.399 | 0.938 | 0.888 | 0.847 | 0.979 | 0.818 | 0.826
R fixed | 1.76 | 1.31 | 0.669 | 1.15 | 1.73 | 2.22 | 1.48 | 1.23 | 1.12
V fixed | 1.26 | 1.14 | 0.661 | 0.863 | 1.11 | 0.697 | 0.732 | 0.969 | 0.991
W fixed | 0.81 | 0.603 | 1.68 | 1.11 | 0.623 | 0.727 | 0.944 | 0.999 | 0.986
Y fixed | 0.822 | 1.16 | 1.48 | 0.898 | 0.893 | 0.736 | 0.778 | 0.937 | 0.966
pThr fixed | 0.844 | 1.28 | 0.557 | 1.02 | 1.1 | 1.32 | 1.22 | 1.27 | 1.06
pTyr fixed | 0.422 | 0.937 | 0.518 | 0.722 | 0.785 | 0.648 | 0.892 | 0.859 | 0.733

ROCK2, construct: aa5-554 (from UniProt O75116)
relative phosphorylation
Details | at +1 | at +2 | at +3 | at +4 | at -1 | at -2 | at -3 | at -4 | at -5
A fixed | 0.695 | 1.01 | 0.926 | 0.921 | 0.75 | 0.607 | 0.647 | 0.938 | 1
D fixed | 0.471 | 0.48 | 0.757 | 0.745 | 0.406 | 0.263 | 0.297 | 0.58 | 0.562
E fixed | 0.455 | 0.51 | 0.614 | 0.751 | 0.301 | 0.251 | 0.28 | 0.613 | 0.471
F fixed | 0.69 | 0.707 | 0.962 | 1.1 | 0.559 | 0.474 | 0.341 | 0.622 | 0.679
G fixed | 0.957 | 0.876 | 1.73 | 1.31 | 1.08 | 0.706 | 0.724 | 1.22 | 1.19
H fixed | 0.984 | 1.16 | 1.25 | 1.1 | 1.16 | 1.42 | 1.59 | 1.13 | 1.25
I fixed | 1.49 | 1.29 | 0.948 | 0.984 | 0.482 | 0.3 | 0.281 | 0.516 | 0.692
K fixed | 1.19 | 1.44 | 0.998 | 1.2 | 2.77 | 2.71 | 2.57 | 2.3 | 2.45
L fixed | 1.48 | 1.08 | 0.952 | 0.886 | 0.912 | 0.391 | 0.304 | 0.504 | 0.494
M fixed | 1.52 | 0.743 | 0.876 | 0.929 | 0.792 | 0.446 | 0.361 | 0.707 | 0.571
N fixed | 1.43 | 0.734 | 0.931 | 1.04 | 1.15 | 0.937 | 0.637 | 0.836 | 0.779
P fixed | 0.266 | 0.935 | 1.28 | 1.29 | 1.28 | 0.665 | 0.785 | 1.19 | 1.04
Q fixed | 1.51 | 0.75 | 0.835 | 0.946 | 1.09 | 0.801 | 0.651 | 0.904 | 0.865
R fixed | 1.77 | 1.81 | 0.97 | 1.07 | 2.2 | 5.27 | 6.24 | 2.89 | 2.83
V fixed | 0.908 | 1.48 | 0.835 | 0.727 | 0.619 | 0.321 | 0.297 | 0.555 | 0.641
W fixed | 0.616 | 0.922 | 1.08 | 1.09 | 0.528 | 0.762 | 0.53 | 0.822 | 0.736
Y fixed | 0.564 | 1.07 | 1.06 | 0.914 | 0.929 | 0.681 | 0.461 | 0.673 | 0.758
pThr fixed | 0.595 | 0.566 | 0.556 | 0.763 | 0.336 | 0.465 | 0.494 | 0.755 | 0.805
pTyr fixed | 0.409 | 0.592 | 0.736 | 0.663 | 0.386 | 0.338 | 0.435 | 0.489 | 0.705

RPS6KA4, construct: Full length (from UniProt O75676)
relative phosphorylation
Details | at +1 | at +2 | at +3 | at +4 | at -1 | at -2 | at -3 | at -4 | at -5
A fixed | 0.665 | 0.804 | 0.781 | 0.843 | 0.745 | 0.911 | 0.769 | 1.08 | 1.06
D fixed | 0.621 | 1.61 | 1.12 | 1.43 | 0.996 | 0.411 | 0.319 | 0.715 | 0.699
E fixed | 0.77 | 1.07 | 1.12 | 1.33 | 0.567 | 0.413 | 0.329 | 0.853 | 0.661
F fixed | 1.3 | 0.921 | 1.08 | 0.864 | 0.749 | 0.749 | 0.472 | 0.868 | 1.01
G fixed | 0.547 | 0.65 | 1.03 | 1.1 | 1.11 | 0.775 | 0.465 | 1.15 | 1.06
H fixed | 1.21 | 1.7 | 1.3 | 1.35 | 1.04 | 0.924 | 0.817 | 1.17 | 1.2
I fixed | 1.26 | 0.85 | 0.811 | 0.767 | 0.44 | 0.354 | 0.258 | 0.665 | 0.858
K fixed | 0.634 | 0.72 | 0.71 | 0.934 | 1.41 | 1.2 | 0.915 | 1.32 | 1.25
L fixed | 1 | 0.698 | 0.998 | 0.782 | 0.791 | 0.518 | 0.285 | 0.679 | 1
M fixed | 1.27 | 0.909 | 1.04 | 0.867 | 1.04 | 0.629 | 0.373 | 0.84 | 0.857
N fixed | 0.937 | 1.44 | 0.935 | 1.23 | 1.57 | 0.861 | 0.473 | 1.01 | 0.871
P fixed | 0.345 | 0.5 | 0.942 | 1.09 | 1.3 | 0.429 | 0.64 | 1.01 | 0.887
Q fixed | 1.1 | 0.873 | 0.949 | 1.25 | 1.19 | 0.885 | 0.642 | 1.09 | 0.831
R fixed | 0.771 | 0.869 | 0.677 | 0.74 | 1.5 | 6.18 | 8.7 | 1.81 | 1.96
V fixed | 1.24 | 0.807 | 0.726 | 0.639 | 0.51 | 0.354 | 0.247 | 0.583 | 0.773
W fixed | 1.89 | 1.39 | 1.62 | 1.07 | 0.898 | 0.748 | 0.738 | 1.13 | 1.19
Y fixed | 1.44 | 1.18 | 1.17 | 0.72 | 1.14 | 0.66 | 0.555 | 1.04 | 0.832
pThr fixed | 1.11 | 1.18 | 1.15 | 1.83 | 0.415 | 0.419 | 0.515 | 0.698 | 0.644
pTyr fixed | 1.57 | 1.17 | 1.47 | 1.39 | 1.27 | 0.502 | 0.491 | 0.81 | 0.804

SIK2, construct: Full length (from UniProt Q9H0K1)
relative phosphorylation
Details | at +1 | at +2 | at +3 | at +4 | at -1 | at -2 | at -3 | at -4 | at -5
A fixed | 0.683 | 0.923 | 0.762 | 0.745 | 0.883 | 1.45 | 0.789 | 0.944 | 0.972
D fixed | 0.42 | 0.461 | 1.59 | 0.353 | 0.463 | 0.232 | 0.255 | 0.57 | 0.48
E fixed | 0.487 | 0.486 | 0.54 | 0.309 | 0.388 | 0.208 | 0.327 | 0.599 | 0.463
F fixed | 1.13 | 0.924 | 1.51 | 0.96 | 0.685 | 1.5 | 0.969 | 0.98 | 1.2
G fixed | 0.622 | 0.518 | 0.556 | 0.631 | 2.45 | 0.96 | 0.658 | 0.991 | 0.89
H fixed | 1.06 | 1.1 | 1.23 | 0.79 | 1.03 | 1.37 | 1.14 | 1.02 | 0.858
I fixed | 1.05 | 0.988 | 0.821 | 2.46 | 0.591 | 0.561 | 0.627 | 0.762 | 1.09
K fixed | 1.18 | 1.19 | 0.856 | 1.11 | 1.65 | 1.26 | 2.14 | 1.56 | 1.5
L fixed | 1.17 | 1.15 | 0.988 | 2.94 | 0.929 | 0.52 | 0.752 | 0.828 | 1.76
M fixed | 1.68 | 0.94 | 0.916 | 1.4 | 1.03 | 0.664 | 0.765 | 1.02 | 1.17
N fixed | 1.03 | 1.03 | 2.08 | 0.635 | 1 | 0.583 | 0.526 | 0.828 | 0.757
P fixed | 0.336 | 0.68 | 0.33 | 0.578 | 0.923 | 0.394 | 0.788 | 0.729 | 0.767
Q fixed | 1.61 | 0.991 | 0.856 | 0.602 | 1.05 | 0.607 | 0.634 | 0.88 | 0.704
R fixed | 1.48 | 1.7 | 1.03 | 0.83 | 1.77 | 1.4 | 3.76 | 2.09 | 1.41
V fixed | 1 | 0.965 | 0.638 | 1.16 | 0.641 | 0.771 | 0.637 | 0.857 | 0.959
W fixed | 0.951 | 1.74 | 1.19 | 0.809 | 0.605 | 2.67 | 1.37 | 1.29 | 1.04
Y fixed | 1.11 | 1.21 | 1.12 | 0.688 | 0.918 | 1.85 | 0.864 | 1.06 | 0.967
pThr fixed | 0.905 | 0.696 | 0.382 | 0.389 | 0.467 | 0.567 | 0.613 | 0.787 | 0.791
pTyr fixed | 0.499 | 0.38 | 0.573 | 0.35 | 0.746 | 0.54 | 0.614 | 0.526 | 0.71
